Results: the DeepSol protein solubility set

Experiment: soluble on expression in E. coli; label from the status in PepcDB or PDB records

Row | Sequence | soluble on expression in E. coli
1 | MQYEKVKPPENGEKIRYENGKLIVPDNPIIPYFEGDGIGKDVVPAAIRVLDAAADKIGKEVVWFQVYAGEDAYKLYGNYLPDDTLNAIKEFRVALKGPLTTPVGGGYRSLNVTIRQVLDLYANVRPVYYLKGVPSPIKHPEKVNFVIFRENTEDVYAGIEWPRGSEEALKLIRFLKNEFGVTIREDSGIGIKPISEFATKRLVRMAIRYAIENNRKSVTLVHKGNIMKYTEGAFRDWGYEVAKQEFGEYCITEDELWDKYGGKQPEGKIVVKDRIADNMFQQILTRTDEYDVIALPNLNGDYLSDAAAALIGGLGIAPGSNIGDGIGVFEPVHGSAPKYAGQNKVNPTAEILTGALMFEYIGWKDASEMIKKAVEMTISSGIVTYDIHRHMGGTKVGTREFAEAVVENLQSL | soluble
2 | MRAIDLNSDLGESFGAWSMGDDAAMLDIVTSANVACGFHAGDPAGILRTLKAAAAKNVTIGAHVSYPDKVGFGRRNMDVASDELTADVIYQIGSLQGLAKAAGTSVRYVKPHGALYNTIAHDRRQAMAVIEAIRAIDPALVLVALAGSTLIELARSEGLQCIAEAFADRAYTPQGTLVSRREPGAVLHDPELVAQRMLRLVQSGSIEAIDGSLVRIEADSICVHGDSPAAVEMARELRRVLEQASTSLQPFAGKRS | soluble
3 | MRAIDLNSDLGESFGAWSMGDDAAMLDIVTSANVACGFHAGDPAGILRTLKAAAAKNVTIGAHVSYPDKVGFGRRNMDVASDELTADVIYQIGSLQGLAKAAGTSVRYVKPHGALYNTIAHDRRQAMAVIEAIRAIDPALVLVALAGSTLIELARSEGLQCIAEAFADRAYTPQGTLVSRREPGAVLHDPELVAQRMLRLVQSGSIEAIDGSLVRIEADSICVHGDSPAAVEMARELRRVLEQASTSLQPFAGKRSLEHHHHHH | not soluble
4 | MRATEDHTIFDRGVGQRDQLQRLWTPYRMNYLAEAPVKRDPNSSASPAQPFTEIPQLSDEEGLVVARGKLVYAVLNLYPYNPGHLMVVPYRRVSELEDLTDLESAELMAFTQKAIRVIKNVSRPHGFNVGLNLGTSAGGSLAEHLHVHVVPRWGGDANFITIIGGSKLEHHHHHH | not soluble
5 | MRATTIEEPARQVPLYGEYEVVVLGGGPAGIIAAASAARAGRKTLLIERYGFLGGMGTAAGVTNFCGLHGNVYGQAHRLVQGLASELLARIDLLNGLNTPHLILGKVFAQAYDTAAYKIAADELLASHKVNILFHALGAGVVMGDNSRIDALMVETKAGRQAVRSEIFIDCSGDGDLAVWAGAPFEVGDEHGHPLYPSMMLRLNNIDPEKAGEAWRTIPQLMEKALAAGTHKFPRKSAIVRPQKSGIEWRVNFTQVAREDGHAINGIEPDDLTRGEIEGRRQALAAFEFLRTVPGFEKSYIVDLPPQLGIRETRRIKGGYQLSGEDVLGCASFEDSIGVNGWPIEAHVPGDVIFTFPPIPESRGYNELPYRMLVPEGVDNLLVAGRCASMTHEGQSAARVSGACFVMGEAAGSAAALALSGNRIPRDIPIEKLQETLKQQGAFIGRDQPVPEGLLEHHHHHH | not soluble
6 | MRCPKCNYHKSSVVDSRQAEDGNTIRRRRECEQCHTRFTTFERVEELPLLVIKKDGTREQFSRDKILNGVVQSAQKRPVSSTDIENVISRIEQEVRTTYENEVSSTAIGNLVMDELAELDEITYVRFASVYKSFKDVDEIEELLQQITNRVRGKKKRLNNDETN | not soluble
7 | MRCPNCNSLDTQVKDSRPTEDSSVIRRRRVCIACNFRFTTFERVQLRELIVIKRNGRRVPFDRDKLMRSVQISLRKRPVDPERVEQMVSAIVRELESGGEAEISSETIGESVMDHLRKLDDVAYVRFASVYRNFREAKDFEAVLGELSHEDEARAALVRK | not soluble
8 | MRDEEPVRRLETIVEEERRVVVQGYVFDAEVSELKSGRTLLTMKITDYTNSILVKMFSRDKEDAELMSGVKKGMWVKVRGSVQNDTFVRDLVIIANDLNEIAANERQDTAPEGEKRVELHLHTPMSQMDAVTSVTKLIEQAKKWGHPAIAVTDHAVVQSFPEAYSAAKKHGMKVIYGLEANIVDDGVPIAYNETHRRLGSGSGPFHVTLLAQNETGLKNLFKLVSLSHIQYFHRVPRIPRSVLVKHRDGLLVGSGCDKGELFDNLIQKAPEEVEDIARFYDFLEVHPPDVYKPLIEMDYVKDEEMIKNIIRSIVALGEKLDIPVVATGNVHYLNPEDKIYRKILIHSQGGANPLNRHELPDVYFRTTNEMLDCFSFLGPEKAKEIVVDNTQKIASLIGDVKPIKDELYTPRIEGADEEIREMSYRRAKEIYGDPLPKLVEERLEKELKSIIGHGFAVIYLISHKLVKKSLDDGYLVGSRGSVGSSFVATMTEITEVNPLPPHYVCPNCKHSEFFNDGSVGSGFDLPDKNCPRCGTKYKKDGHDIPFETFLGFKGDKVPDIDLNFSGEYQPRAHNYTKVLFGEDNVYRAGTIGTVADKTAYGFVKAYASDHNLELRGAEIDRLAAGCTGVKRTTGQHPGGIIVVPDYMEIYDFTPIQYPADDTSSEWRTTHFDFHSIHDNLLKLDILGHDDPTVIRMLQDLSGIDPKTIPTDDPDVMGIFSSTEPLGVTPEQIMCNVGTIGIPEFGTRFVRQMLEETRPKTFSELVQISGLSHGTDVWLGNAQELIQNGTCTLSEVIGCRDDIMVYLIYRGLEPSLAFKIMESVRKGKGLTPEFEAEMRKHDVPEWYIDSCKKIKYMFPKAHAAAYVLMAVRIAYFKVHHPLLYYASYFTVRAEDFDLDAMIKGSAAIRKRIEEINAKGIQATAKEKSLLTVLEVALEMCERGFSFKNIDLYRSQATEFVIDGNSLIPPFNAIPGLGTNVAQAIVRAREEGEFLSKEDLQQRGKLSKTLLEYLESRGCLDSLPDHNQLSLFSGGHHHHHHHH | soluble
9 | MRDVLEVLEFPRVRALLAERAKTPLGRELALALAPLPREEAEKRHELTGEALSYPYALPEAGTLREAYGRALAGARLSGPELLKAAKALEEAMALKEELLPLKNALSQVAEGIGDHTPFLERVRKALDEEGAVKDEASPRLAQIRRELRPLRQQILDRLYALMDRHREAFQDRFVTLRRERYCVPVRAGMAQKVPGILLDESESGATLFIEPFSVVKLNNRLQALRLKEEEEVNRILRDLSERLAKDEGVPKTLEALGLLDLVQAQAALARDLGLSRPAFGERYELYRAFHPLIPDAVRNSFALDEKNRILLISGPNMGGKTALLKTLGLAVLMAQSGLFVAAEKALLAWPDRVYADIGDEQSLQENLSTFAGHLRRLREMLEEATSHSLVLIDELGSGTDPEEGAALSQAILEALLERGVKGMVTTHLSPLKAFAQGREGIQNASMRFDLEALRPTYELVLGVPGRSYALAIARRLALPEEVLKRAEALLPEGGRLEALLERLEAERLALEAERERLRRELSQVERLRKALAEREARFEEERAERLKALEEEVRAELLKVEAELKALKEKARTEGKRDALRELMALRERYAKKAPPPPPPPGLAPGVLVEVPSLGKRGRVVELRGEEVLVQVGPLKMSLKPQEVKPLPEAEPGKPLLAKPRREVKEVDLRGLTVAEALLEVDQALEEARALGLSTLRLLHGKGTGALRQAIREALRRDKRVESFADAPPGEGGHGVTVVALRP | soluble
10 | MREDVPRAVTTICSALQEQIEHGLLPHGSKLPAERKLSEVFDTTRITLREALLQLEAQGLIYREERRGWFISPPRLAYDLIRRSHFHAMVCAQGRVAHTQLLSARLQPASAMICEMLELPALSSVIQICRARRIDQRLVLYVEHYLRPELFPGILDHDLNESLIELYARCYDVHYGPVRFDVVPTALHADAAAALKVSLGSPGLRIARVNYDRKDRLIDCDLEYWRHDAIHVRAMVRDN | not soluble
11 | MREEFLEEIPLDAPPEEAKELRTEVMTLNVGPQHPSTHGVLRLMVTLSGEEVLEVVPHIGYLHTGFEKTMEHRTYLQNITYTPRMDYLHSFAHDLAYALAVEKLLGAVVPPRAETIRVILNELSRLASHLVFLGTGLLDLGALTPFFYAFRERETILDLFEWVTGQRFHHNYIRIGGVKEDLPEEFVPELKKLLEVLPHRIDEYEALFAESPIFYERARGVGVIPPEVAIDLGLTGGSLRASGVNYDVRKAYPYSGYETYTFDVPLGERGDVFDRMLVRIREMRESVKIIKQALERLEPGPVRDPNPQITPPPRHLLETSMEAVIYHFKHYTEGFHPPKGEVYVPTESARGELGYYIVSDGGSMPYRVKVRAPSFVNLQSLPYACKGEQVPDMVAIIASLDPVMGDVDR | soluble
12 | MREKLTVIKVGGKIVEEEATLLQLLNDFAAISGHKVLVHGGGRSATKIAAQLGIESKMVNGRRITDAETLKVVTMVYGGLVNKNIVAGLQARGVNALGLTGADMNVIRSVKRPVKEVDYGFVGDVEKVDASLLADLIHKGVVPVMAPLTHDGQGNMLNTNADTIAGETAKALSALFDVTLVYCFEKKGVLRDENDDDSVIPEITRAEFEQYVADGVIQGGMIPKLENSFEAINAGVTEVVITLASAIKDNEGTRIKK | not soluble
